Experimental data taken from article PMC3319807 (Cancer Research, 2012).

Biological target: His-tagged full-length p53 (UniProt P04637 1-393)
Experiment: co-IP

Sequence of His-tagged full-length p53 (P04637 whole entry): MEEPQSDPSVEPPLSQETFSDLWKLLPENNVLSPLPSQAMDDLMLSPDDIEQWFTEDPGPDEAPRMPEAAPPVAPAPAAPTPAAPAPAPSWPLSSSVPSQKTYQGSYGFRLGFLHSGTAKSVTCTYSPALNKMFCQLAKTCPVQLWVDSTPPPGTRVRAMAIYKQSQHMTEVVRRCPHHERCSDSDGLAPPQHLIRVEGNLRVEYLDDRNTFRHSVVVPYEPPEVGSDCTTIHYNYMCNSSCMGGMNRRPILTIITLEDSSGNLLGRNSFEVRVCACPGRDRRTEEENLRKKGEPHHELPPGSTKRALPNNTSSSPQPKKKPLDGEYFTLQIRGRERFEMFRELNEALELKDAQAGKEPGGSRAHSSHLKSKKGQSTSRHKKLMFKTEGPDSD

binding result: binds
B1: His-tagged minimal-binding region of Dmp1 for p53 (M14: amino acids 87–224) (domain or fragment, UniProt Q8CE22 87-224, looked up)
chain: VTMTATTEVADDELSEGTVTQIQILQNDQLDEISPLGTEEVSAVSQAWFTTKEDKDSLTNKGHKWKQGMWSKEEIDILMNNIERYLKARGIKDATEIIFEMSKDERKDFYRTIAWGLNRPLFAVYRRVLRMYDDRNHV
